According to PMC4072508, “Genome-Wide Prediction and Validation of Peptides That Bind Human Prosurvival Bcl-2 Proteins” (PLoS Computational Biology, 2014):

T1: Mcl-1, Q07820
T1 chain: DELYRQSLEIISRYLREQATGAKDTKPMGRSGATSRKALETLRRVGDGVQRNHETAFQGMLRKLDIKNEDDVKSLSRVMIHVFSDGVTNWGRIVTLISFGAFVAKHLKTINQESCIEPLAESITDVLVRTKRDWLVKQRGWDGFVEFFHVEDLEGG


Target: T1, Mcl-1, Q07820
Test: peptide SPOT array, c-Myc-tagged receptor at 1 uM or 100 nM, anti-c-Myc-Cy3

Binder | SPOT signal as a fraction of Bim BH3's signal on the same receptor and array
CVSDQELGLLIKEVADALGGGADPET [KCNK4] | 0.01
GSKSDPLCVLLQDVGGGSWAELGRTE [CPNE1] | 0.02
KCCYGYCIDLLERLAEDTPFDFELYL [GRIN3B] | 0.02
FDRAVVLSHYIHNLSSEMFSEFDKRY [PRL] | 0.02
GLTWDPVGKYDASQADDRSLKVWRTL [HIRA] | 0.23
QATHDQAVQALKRAGKEVLLEVKFIR [SNTB2] | 0.02
SAGVPVRGVELQAAAERFARCFGRTD | 0.04
AKTSQTVATFLDELAQKLKPLGEQER [THOP1] | 0.02
RLAHEHHCLRDKILGDCYYCVSGLPE [ADCY8] | 0.01
ELQAPATVQSDGLLGDRLCVGAAGGF [CDC42BPG] | 0.01
SSAPAAAAGLLREAGSGGRERADWRR [MAP3K1] | 0.07
ALKKADVGFADGIAGTDVAKEASDII [ATP2B1] | 0.01
DKATENCVCILHNLSYQLEAELPEKY [PKP2] | 0.01
RTVESEAASYLDQISRYYITRAKLVS [PSME3] | 0.15
RVSWNITGTVLASSLDDGCVRLWKAN [SEH1L] | 0.08
SPYVFNGGTILAIALEDFAIVASDTR [PSMB1] | 0.01
SLIEYKAAVTLQRAALKFLAKYRKKK [IQCB1] | 0.24
RRTSINVVRHLGIVLECNIQFALHPT | 0.1
QVQNIKLAGSLQHVAEKLCRELYNKA [CLEC1A] | 0.11
LDDSVEVIKALKNGGAHLDFRAKDGM [SHANK2] | 0.02
TESGSFVANLLKDLGLEIGELAVRGA [PCDHB2] | 0.02
PSLSKELTSSDAGVGDVSFDSDSQFP [CRTC1] | 0.01
AIDAIFLTTTLQNISEDVLAVMDNKN [CKAP5] | 0.02
GVMTQEVGQLLQDMGDDVYQQYRSLT [HUWE1] | 0.45

Binder | SPOT signal as a fraction of Bim BH3's signal on the same receptor and array
SEDHFRAAYLLKDVAKEAYQDVAFTQ [BNC1] | 0.02
LRCEMASTGEVACFGEGIHTAFLKAM | 0.03
NKRHRPIGIGVQGLADAFILMRYPFE [RRM1] | 0.04
TLLTPGYSVIIEKLAEGLDIQLKSPV [KDM1B] | 0.02
RFVVIDNCIALKKVASRLKKKRKKKN [TTC3] | 0.17
IFNGSNWIMLIYKGGDEYDNHCGKEQ [M6PR] | 0.02
KYFLQNFSCFLEETADEWAEKMPKGP [EFCAB6] | 0.03
SKSKIHAARSLSEIAIDLTETGTLKT [FRMD4A] | 0.02
IVIDCSAIQFLDTAGIHTLKEVRRDY [SLC26A2] | 0.02
HQAEVQIARKLQCIADQFHRLHVQQH [BMF] | 0.48
LNAVNYISTVLADWADNVFFLQLQQA [RINT1] | 0.03
CANHPSAVNVLTEHSEELGEFMETKG [ARHGEF7] | 0.01
RRTSINVVRHDGIVGECNIQFALHPT | 0.03
DRFEGYCIDLLRELSTILGFTYEIRL [GRIK2] | 0.02
CGDLASLSIDIWTLLEEVDGRRLVVA [BIRC6] | 0.03
RGPEAPGGRALRDAAENLFQELQEHF [PRR20C] | 0.02
REAAVSASDILQESAIHSPGTVEKEA [C12orf43] | 0.01
ANLEISYAKGLQKLASKLSKALQNTR [NOSTRIN] | 0.22
SAGVPVRGVEDQAAAERFARCFGRTD | 0.02
CALLGSTGERICLALDSAGGNLCFTV [LIPE] | 0.01
RIEMWISILELNELGEYAAVELHQAK [KIF13A] | 0.02
TWEIECTSEMLKKLSSKVMTKVIKKK [TRANK1] | 0.11
EAGNMAAVGRLQAVSRRLFAELENER [KIAA1751] | 0.02
QQMHHNAATAMAQRADMLRGLSPRES [NCOR2] | 0.01

target: Bcl-xL, Q07817; test: as above
Sequence (Q07817 1-209): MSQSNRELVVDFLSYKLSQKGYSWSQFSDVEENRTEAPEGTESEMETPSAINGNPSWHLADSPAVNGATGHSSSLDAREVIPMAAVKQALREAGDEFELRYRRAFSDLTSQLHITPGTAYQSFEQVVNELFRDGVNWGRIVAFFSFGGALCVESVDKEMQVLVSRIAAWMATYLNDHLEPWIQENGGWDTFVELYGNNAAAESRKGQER

Binder | SPOT signal as a fraction of Bim BH3's signal on the same receptor and array
GLTWDPVGKYDASQADDRSLKVWRTL [HIRA] | 0.17
SAGVPVRGVELQAAAERFARCFGRTD | 0.12
RLAHEHHCLRDKILGDCYYCVSGLPE [ADCY8] | 0.02
ELQAPATVQSDGLLGDRLCVGAAGGF [CDC42BPG] | 0.01
ALKKADVGFADGIAGTDVAKEASDII [ATP2B1] | 0.01
RVSWNITGTVLASSLDDGCVRLWKAN [SEH1L] | 0.18
SPYVFNGGTILAIALEDFAIVASDTR [PSMB1] | 0.02
RRTSINVVRHLGIVLECNIQFALHPT | 0.14
PSLSKELTSSDAGVGDVSFDSDSQFP [CRTC1] | 0.01
LRCEMASTGEVACFGEGIHTAFLKAM | 0.03
NKRHRPIGIGVQGLADAFILMRYPFE [RRM1] | 0.04
LNAVNYISTVLADWADNVFFLQLQQA [RINT1] | 0.02
RRTSINVVRHDGIVGECNIQFALHPT | 0.03
CGDLASLSIDIWTLLEEVDGRRLVVA [BIRC6] | 0.03
SAGVPVRGVEDQAAAERFARCFGRTD | 0.02
CALLGSTGERICLALDSAGGNLCFTV [LIPE] | 0.01
RIEMWISILELNELGEYAAVELHQAK [KIF13A] | 0.02
QQMHHNAATAMAQRADMLRGLSPRES [NCOR2] | 0.06
